# From article PMC12041195
# Tests used:
# Assay in all cases: BLI
# [1] = target: recombinant HA protein of A/Hong Kong/45/2019 (H3N2) (influenza A virus A/Hong Kong/45/2019 (H3N2))
# [2] = target: recombinant HA protein of A/Aichi/2/1968 (H3N2) (influenza A virus A/Aichi/2/1968 (H3N2)) (UniProt P03437)
# [3] = target: recombinant HA protein of A/Beijing/262/1995 (H1N1) (influenza A virus A/Beijing/262/1995 (H1N1))
# [4] = target: recombinant HA protein of A/New Caledonia/20/1999 (H1N1) (influenza A virus A/New Caledonia/20/1999 (H1N1))
Substance,Kd [1],Kd [2],Kd [3],Kd [4]
IgG-F045-092 (antibody),12500 pM,–,–,–
IgM-F045-092 (from UniProt P01591 23-159) (antibody),< 1 pM,< 1 pM,< 1 pM,< 1 pM
